Experimental data reported in patent US10517925B2, “Composition comprising KA11 polypeptide or gene encoding the same for inhibiting angiogenesis, and use thereof” (SEOUL NATIONAL UNIVERSITY R & DB FOUNDATION, priority 2015, dated 2019).
Entries after “also recorded” stand apart in the source; their conditions may differ.

How the values were obtained:
[1] = system: KAI1 expression in 10T1/2; assay: blocking of the cytokine-induced decrease in KAI1 expression of 10T1/2 by inhibitor pre-treatment; format: cell-based, mouse; settings: 10T1/2, 50 μM methylation inhibitor, then cytokine (VEGF-A, bFGF, PDGF-bb)
Procedure: Before 10T1/2 was treated with 40 ng/ml of a cytokine (VEGF-A, bFGF or PDGF-bb) selected in Example 8-1, a cytokine receptor inhibitor was treated beforehand. To this end, VEGF-A- and PDGF-bb-treated groups were treated with a tyrosine kinase inhibitor named SU11248, and a bFGF-treated group was pre-treated with a tyrosine kinase inhibitor named PD173074 for 2 hours, treated with 40 ng/ml of each cytokine (VEGF-A, bFGF, and PDGF-bb) as an angiogenic factor for 24 hours, and then harvested to confirm KAI1 expression through RT-qPCR and Western blotting, and the result is shown in FIGS. 29A and 29B.
To confirm signaling of the decrease in KAI1 expression in 10T1/2 by a cytokine, RT-qPCR and Western blotting were used to confirm whether the decrease in KAI1 expression in 10T1/2 by a cytokine was blocked by treating 10T1/2 with a signal molecule inhibitor (a Src, Pkc, TGF-β, MAPK, AKT, p53. or JAK inhibitor) before cytokine stimulation, and the result is shown in FIGS. 35 to 38.
10T1/2 was treated with 50 μM of a methylation inhibitor (5-azacytidine), and then treated with each cytokine (VEGF-A, bFGF, and PDGF-bb), which is an angiogenic factor, to confirm KAI1 expression, and the result is shown in FIG. 40.

[2] = system: KAI1 expression in 10T1/2; assay: KAI1 expression of 10T1/2 treated with angiogenic cytokines (RT-qPCR, Western blotting, immunostaining); format: cell-based, mouse; settings: for KAI1 expression: 10T1/2, 40 ng/ml cytokine, until 72 hours; for KAI1 expression after removal of the stimulant: 10T1/2 stimulated 24 hours, then fresh culture media
Procedure: That is, the change in KAI1 expression according to time (24 hrs, 48 hrs or 72 hrs) after 10T1/2 was treated with 40 ng/ml of each cytokine (VEGF-A, bFGF or PDGF-bb) was identified through RT-qPCR, Western blotting and immunostaining, and thus the results are shown in FIGS. 31A and 31B and 32. Here, each group of 10T1/2 was treated with 40 ng/ml of each cytokine (VEGF-A, bFGF, and PDGF-bb) as an angiogenic factor and cultured in RPMI 1640 HEPES supplemented with 10% (v/v) fetal bovine serum (FBS) and 1% antibiotics-antimycotics for up to 72 hours without change in a culture medium.
After FGF or PDGF stimulation was given to 10T1/2, 24 hours later, the media was changed with fresh culture media (general culture media), and then RT-qPCR and Western blotting were conducted to confirm whether there was a change in the decreased expression of KAI1. […] From the result, it can be seen that the decrease in KAI1 expression was reversible.

[3] = system: prostate cancer cell line (PC-3); assay: PC-3 matrigel subcutaneous tumor mass formation in mice; format: in vivo, mouse; settings: PC-3 with matrigel subcutaneously in mice, compared to vehicle
From the text: More specifically, a prostate cancer cell line (PC-3) was mixed with a matrigel and subcutaneously injected into mice, and then tumor mass formation was observed and compared per experimental group. […] In addition, it can be confirmed that tumor mass was smaller in a group injected with a supernatant of KAI1 O/E 10T1/2 than in a group injected with a supernatant of mock 10T1/2. After the tumor mass obtained in the above-mentioned experiment was fixed with PFA, the cross-section was formed into sections, and a degree of angiogenesis per experimental group was determined by IF. Antibodies used herein were BS-1 Lectin (EC marker, 488 fluorescence), α-SMA (Pericyte marker, 555 fluorescence), and DAPI (nucleus marker, 405 fluorescence).

retinal angiogenesis = assay: retinal disease model mouse, injection into the orbit; format: in vivo; settings: injected into the orbit of model mouse, immunofluorescence, compared with control (not treated)
Procedure: Retinal diseases such as diabetic retinopathy and central serous (chorio)retinopathy are diseases of the loss of eyesight as vessel permeability is increased by a VEGF, body fluids gather around the retina (macular edema), and pathological angiogenesis occur.
A KAI1 protein was injected into the orbit of a model mouse with such a disease, and a degree of angiogenesis inhibition was compared with a control (not treated).

[4] = system: MS-1 / 10T1/2 hybrid spheroid; assay: EC-pericyte hybrid spheroid sprouting in collagen; format: cell-based, mouse; settings: culture media supplemented with KAI1 protein
From the text: Here, a mouse endothelial cell line (MS-1) was used as ECs and 10T1/2 was used as pericytes. In addition, KAI1 was overexpressed using an adenovirus in pericytes. In the manufacture of the spheroid, a ratio of the number of each type of cell (EC:pericyte) was 2:1, and the total cell number was fixed at 3×10^3. As culture media used to grow the spheroids, 10% FBS and 1% antibiotics-antimycotics-containing Dulbecco's modified eagle medium (DMEM) was used. In addition, effective EC sprouting was induced by a treatment of 100 ng/ml of recombinant human VEGF.
Afterwards, to verify an anticancer effect of a KAI1 protein treatment, B16 and an EC-pericyte hybrid spheroid were manufactured and embedded in collagen, and then a degree of vessel formation was observed by time. Here, a mouse endothelial cell line (MS-1) was used as ECs, and 10T1/2 was used as pericytes. In the manufacture of the spheroid, a ratio of the number of each type of cell (EC:pericyte) was 2:1, and the total cell number was fixed at 3×10^3. As culture media used to grow the spheroids, Dulbecco's modified eagle medium (DMEM) supplemented with 10% FBS and 1% antibiotics-antimycotics and a KAI1 protein was used. As a result, as shown in FIGS. 50A and 50B and 51, it can be confirmed that the sprouting of the KAI1 protein was inhibited in the spheroids. Therefore, an anticancer effect of the KAI1 protein was able to be expected.

mouse cornea = mouse cornea micropocket assay; format: in vivo; settings: pellet containing both cytokine and protein, 10 days, similar to vehicle
Procedure: Based on the above-described in vitro experiment, a mouse cornea micropocket assay was performed to confirm whether angiogenesis was actually regulated by in vivo regulation of the KAI1 expression of pericytes. After a pocket formed by mixing cytokine, sucralfate and poly-hema (from which the cytokine was slowly secreted little by little) was manufactured and added to the mouse cornea, a degree of angiogenesis per experimental group was examined for 10 days. As a result, as shown in FIGS. 47A and 47B, it can be confirmed that, compared to a vehicle, angiogenesis in the mouse cornea injected with a pellet containing only a cytokine was added was much increased.

Molecule: Nc1ncn([C@@H]2O[C@H](CO)[C@@H](O)[C@H]2O)c(=O)n1 [5-azacytidine]
- KAI1 gene expression [1]: not decreased

Molecule: bFGF: typical angiogenic factor (cytokine)
- KAI1 expression [2]: continuously decreased
- KAI1 expression after removal of the stimulant [2]: recovered again

B1: KAI1 protein: KAI1(CD82) polypeptide, human-derived amino acid sequence of SEQ ID NO: 1 or mouse-derived SEQ ID NO: 2 (protein)
chain: MGAGCVKVTKYFLFLFNLLFFILGAVILGFGVWILADKNSFISVLQTSSSSLQVGAYVFIGVGAITIVMGFLGCIGAVNEVRCLLGLYFVFLLLILIAQVTVGVLFYFNADKLKKEMGNTVMDIIRNYTANATSSREEAWDYVQAQVKCCGWVSHYNWTENEELMGFTKTTYPCSCEKIKEEDNQLIVKKGFCEADNSTVSENNPEDWPVNTEGCMEKAQAWLQENFGILLGVCAGVAVIELLGLFLSICLCRYIHSEDYSKVPKY
- tumor mass [3]: smaller
- angiogenesis in the presence of VEGF (retinal angiogenesis): angiogenesis was inhibited; also recorded: inhibition of angiogenesis
- sprouting of B16 and EC-pericyte hybrid spheroids [4]: inhibited
- angiogenesis in the mouse cornea (mouse cornea): no angiogenesis

B2: PDGF-bb: typical angiogenic factor (cytokine) (protein, UniProt P01127 82-190, looked up)
Platelet-derived growth …: SLGSLTIAEPAMIAECKTRTEVFEISRRLIDRTNANFLVWPPCVEVQRCSGCCNNRNVQCRPTQVQLRPVQVRKIEIVRKKPIFKKATVTLEDHLACKCETVAAARPVT
modifications: homodimer
- KAI1 expression [2]: continuously decreased
- KAI1 expression after removal of the stimulant [2]: recovered again
